From paper PMC6306009, “Combined use of cutinase and high-resolution mass-spectrometry to query the molecular architecture of cutin” (Plant Methods, 2018)

Columns and labels:
[1] = test system: CCCC(=O)Oc1ccc([N+](=O)[O-])cc1; assay: purified protein; conditions: 20 mM Tris-HCl pH 8, 10 mM NaCl, 10% acetonitrile (standard assay), temperature not given
F. solani cutinase = target: T1, F. solani cutinase (Fusarium vanettenii, UniProt P00590); assay: p-nitrophenol release, absorbance at […] nm; assay type: biochemical; conditions: 20 mM Tris-HCl pH 8, 10 mM NaCl, 10% acetonitrile (standard assay); temperature not given
T1 construct: gene CUT1; codon-optimised ORF, His-tagged, pET30f, E. coli BL21(DE3), sarkosyl extraction, Ni-NTA purified; 24-30 kDa on SDS-PAGE
T1 sequence (P00590 32-230): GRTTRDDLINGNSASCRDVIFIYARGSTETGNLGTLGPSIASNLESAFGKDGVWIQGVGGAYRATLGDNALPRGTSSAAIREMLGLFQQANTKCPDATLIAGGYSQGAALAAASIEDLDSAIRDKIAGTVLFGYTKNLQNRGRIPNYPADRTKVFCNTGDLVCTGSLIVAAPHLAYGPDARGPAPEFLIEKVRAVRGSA

## A. brassicicola cutinase (Alternaria brassicicola)
[1]
  Km: 870 ± 50 µM
  kcat: 12 ± 0.80 s⁻¹

## CCCC(=O)Oc1ccc([N+](=O)[O-])cc1 [p-nitrophenyl butyrate]
F. solani cutinase
  Km: 1260 ± 60 µM
